Laboratory results taken from article PMC4220976, “Small-angle neutron scattering reveals the assembly mode and oligomeric architecture of TET, a large, dodecameric aminopeptidase” (Acta Crystallographica Section D: Biological Crystallography, 2014).
Residue numbers refer to the chain shown, from its start. Names and notes keep the numbering of the source.

B1: Pyrococcus horikoshii TET2 aminopeptidase (PhTET2), wild type (enzyme)
chain: MEVRNMVDYELLKKVVEAPGVSGYEFLGIRDVVIEEIKDYVDEVKVDKLGNVIAHKKGEGPKVMIAAHMDQIGLMVTHIEKNGFLRVAPIGGVDPKTLIAQRFKVWIDKGKFIYGVGASVPPHIQKPEDRKKAPDWDQIFIDIGAESKEEAEDMGVKIGTVITWDGRLERLGKHRFVSIAFDDRIAVYTILEVAKQLKDAKADVYFVATVQEEVGLRGARTSAFGIEPDYGFAIDVTIAADIPGTPEHKQVTHLGKGTAIKIMDRSVICHPTIVRWLEELAKKHEIPYQLEILLGGGTDAGAIHLTKAGVPTGALSVPARYIHSNTEVVDERDVDATVELMTKALENIHELKI
modifications: dPhTET2: random-fractional deuteration, final level approximately 75%; hPhTET2: hydrogenated
notes: PhTET2, leucyl-aminopeptidase of the M42 family, Pyrococcus horikoshii; It was studied as a dimer (de-oligomerization buffer) and as a dodecamer; The preparation of hPhTET2 is not described separately; also called dPhTET2; hPhTET2; source: E. coli, purified (heating at 85°C, Resource Q, Superose 6); dPhTET2 grown in minimal medium with 85% D2O
B2: PhTET2 pentamutant (R217S, R220S, F224S, H248S and I292A) (enzyme, Pyrococcus horikoshii)
chain: B1 chain with R217S, R220S, F224S, H248S, I292A
modifications: deuterated form: random-fractional deuteration, final level approximately 75%; a hydrogenated form was also used
notes: PhTET2, leucyl-aminopeptidase of the M42 family, Pyrococcus horikoshii, with five mutations at the interface between the dimers; The mutant was designed in Appolaire et al. (2013) to slow the oligomerization process; Its deuterated and hydrogenated preparations are kept as one molecule; also called pentamutant PhTET2; mutated PhTET2; source: E. coli, purified (heating at 85°C, Resource Q, …)
B3: Pyrococcus horikoshii TET3 aminopeptidase (PhTET3), hydrogenated (enzyme)
chain: MDLKGGESMVDWKLMQEIIEAPGVSGYEHLGIRDIVVDVLKEVADEVKVDKLGNVIAHFKGSSPRIMVAAHMDKIGVMVNHIDKDGYLHIVPIGGVLPETLVAQRIRFFTEKGERYGVVGVLPPHLRRGQEDKGSKIDWDQIVVDVGASSKEEAEEMGFRVGTVGEFAPNFTRLNEHRFATPYLDDRICLYAMIEAARQLGDHEADIYIVGSVQEEVGLRGARVASYAINPEVGIAMDVTFAKQPHDKGKIVPELGKGPVMDVGPNINPKLRAFADEVAKKYEIPLQVEPSPRPTGTDANVMQINREGVATAVLSIPIRYMHSQVELADARDVDNTIKLAKALLEELKPMDFTP
notes: PhTET3, lysyl-aminopeptidase of the M42 family, Pyrococcus horikoshii; It was studied as a dimer (de-oligomerization buffer) and as a dodecamer; also called hPhTET3; hPhTET3 12s; source: E. coli, purified (heating at 85°C, Resource Q, Superose 6; as described by Durá et al., 2009)

What was measured:
[1] = molecular target: the molecule itself; test: SEC; Superose 6 (native polyacrylamide gels also run) after dialysis of the dodecamers against de-oligomerization buffer: 50 mM CAPS, 20 mM NaCl, 20 mM EDTA pH 10
[2] = molecular target: the molecule itself; test: small-angle neutron scattering (SANS); homododecameric reference samples: dPhTET2 12s in 42% D2O and hPhTET3 12s in 100% D2O; 20 mM Tris-HCl, 150 mM NaCl pH 7.5; 20°C
[3] = molecular target: B3; test: small-angle neutron scattering (SANS) with contrast variation; peak 1 (particle 1) heterododecamer of dPhTET2 and hPhTET3; 4.5 mg/ml; 20 mM Tris-HCl, 150 mM NaCl pH 7.5; 0, 42, 70 and 100% D2O; 20 to 80°C; mass calibrated against water; models scored with CRYSON; details: both partners purified
[4] = molecular target: the molecule itself; test: as above
[5] = molecular target: B3; test: small-angle neutron scattering (SANS) with contrast variation; peak 2 (particle 2) heterododecamer of dPhTET2 and hPhTET3; 4.5 mg/ml; 20 mM Tris-HCl, 150 mM NaCl pH 7.5; 0, 49, 70 and 100% D2O; 20 to 80°C; mass calibrated against water; models scored with CRYSON; details: both partners purified
[6] = molecular target: the molecule itself; test: small-angle neutron scattering (SANS); 1:1 mixtures of preformed homododecameric deuterated and hydrogenated PhTET2 (wild type or pentamutant) in 42% or 100% D2O; temperature raised from 20 to 80°C, 4 h at each temperature
[7] = molecular target: the molecule itself; test: small-angle neutron scattering (SANS) with contrast variation; peak 2 (particle 2) heterododecamer of dPhTET2 and hPhTET3; 4.5 mg/ml; 20 mM Tris-HCl, 150 mM NaCl pH 7.5; 0, 49, 70 and 100% D2O; 20 to 80°C; mass calibrated against water; models scored with CRYSON

Row | Binder | stoichiometry N [1] | stoichiometry N [2] | stoichiometry N [3] | stoichiometry N [4] | stoichiometry N [5] | stoichiometry N [6] | stoichiometry N [7]
1 | B1 | 2 | 12 | 1 dPhTET2:hPhTET3 (6:6) | 6 | 2 dPhTET2:hPhTET3 (8:4) | – | –
2 | B2 | – | – | – | – | – | 12 | –
3 | B3 | – | 12 | – | 6 | – | – | 2
